Measured values published in the Human Domainome abundance scans (Beltran et al. 2025).
± gives the uncertainty stated by the source.

B1: Zinc finger homeobox protein 3, residues 2643 to 2698; numbered along this chain, Q15911 (parent)
chain: RLRTTITPEQLEILYQKYLLDSNPTRKMLDHIAHEVGLKKRVVQVWFQNTRARERK
B2: Membrane-associated guanylate kinase, WW and PDZ domain-containing protein 3, residues 287 to 329; numbered along this chain, Q5TCQ9 (parent)
chain: MRDETLEPLPKNWEMAYTDTGMIYFIDHNTKTTTWLDPRLCKK

Variants of: B1
Test: abundance fitness (aPCA) (normalised: wild type 0, dead -1); higher = more abundant; growth selection in yeast, the domain comes from the species named
Details: Homo sapiens

Variant	abundance fitness
T4E	0.439 ± 0.14
T4L	-0.335 ± 0.11
K27F	-0.293 ± 0.16
K27A	0.018 ± 0.08
K27I	-0.028 ± 0.14
D30V	-0.223 ± 0.094
D30S	-0.108 ± 0.085
D30H	0.007 ± 0.15
D30R	-0.124 ± 0.081
D30T	-0.312 ± 0.13
D30P	-0.543 ± 0.12
Y15I	0.183 ± 0.22
Y15Q	0.244 ± 0.1
Y15C	-0.368 ± 0.13
Y15M	-0.049 ± 0.11
Y15S	0.138 ± 0.094
Y15V	-0.123 ± 0.081
Q10W	-0.856 ± 0.12
Q10F	-0.959 ± 0.095
Q10N	-0.385 ± 0.08

Variant	abundance fitness
Q10T	-0.296 ± 0.076
W46N	-0.902 ± 0.37
W46Q	-0.829 ± 0.16
W46P	-0.891 ± 0.17
W46I	-1.03 ± 0.38
W46A	-0.482 ± 0.12
W46L	-0.758 ± 0.12
F47K	-0.812 ± 0.21
F47L	-0.639 ± 0.098
F47N	-0.835 ± 0.27
F47Q	-0.887 ± 0.16
F47P	-1.04 ± 0.21
F47I	-1.01 ± 0.25
F47A	-0.904 ± 0.12
F47M	-0.522 ± 0.13
F47T	-0.997 ± 0.19
F47S	-0.946 ± 0.14
G37T	-0.825 ± 0.13
G37Y	-0.919 ± 0.16
G37P	-0.637 ± 0.13

Variant	abundance fitness
A33K	-0.804 ± 0.14
A33W	-0.728 ± 0.18
A33Q	-0.845 ± 0.14
A33M	-0.832 ± 0.14
A33S	-0.06 ± 0.074
R26V	0.383 ± 0.078
R26H	0.324 ± 0.16
R26S	0.428 ± 0.08
R26P	0.35 ± 0.089
R26E	0.419 ± 0.096
R26G	0.386 ± 0.072
R26I	0.323 ± 0.13
R26D	0.458 ± 0.13
R26N	0.339 ± 0.15
L11V	-0.021 ± 0.076
L11M	-0.032 ± 0.12
L11P	-0.494 ± 0.14
L11C	-0.648 ± 0.14
L11F	-0.341 ± 0.14

Variants of: B2
Test: as above
Details: Homo sapiens

Variant	abundance fitness
K42T	-0.029 ± 0.039
K42S	-0.063 ± 0.035
K42V	-0.099 ± 0.033
K42M	-0.1 ± 0.047
K42R	-0.038 ± 0.033
K42P	-0.094 ± 0.046
K42N	-0.168 ± 0.15
K42L	-0.086 ± 0.032
K42I	-0.097 ± 0.07
K42W	-0.115 ± 0.042
K42Y	-0.223 ± 0.06
K42Q	-0.056 ± 0.04
K43L	-0.011 ± 0.11
K43H	-0.036 ± 0.05
K43Q	0.136 ± 0.15
K43P	0.042 ± 0.046
K43S	0.002 ± 0.04
K43A	0.011 ± 0.072
K43W	-0.044 ± 0.047
K43N	-0.062 ± 0.076
K43G	0.03 ± 0.043
K43C	-0.065 ± 0.045
K43V	-0.045 ± 0.065
K43E	0.031 ± 0.07
K43I	-0.144 ± 0.047
